Experimental data reported in US20260055205A1 (published 2026).

B1: PSMA.306 (bispecific antibody, V domains shown)
VH: QVQLVESGGGVVQPGRSLRLSCAASGRTFGIYVMGWFRQAPGKEREFVGAMSWSGSNRKVSDSVKGRFTISRDNSKNTLYLQMNSLRAEDTAVYYCAASNKLYGRTWYDFNESDYWGQGTQVTVSS
notes: TCE with CD3.23; also called AC3708
B2: PSMA.310 (bispecific antibody, V domains shown)
VH: QVQLVESGGGVVQPGRSLRLSCAASGRTFGIYVMGWFRQAPGKEREFVGAISWSGSNRKVSDSVKGRFTISRDNSKNTLYLQMNSLRAEDTAVYYCGGSNKLYGRTWYDFNESDYWGQGTQVTVSS
notes: TCE with CD3.23; also called AC3712
B3: PSMA.304 (bispecific antibody, V domains shown)
VH: QVQLVESGGGVVQPGRSLRLSCAASGRTFGIYVWGWFRQAPGKEREFVGAMSWSGSNRKVSDSVKGRFTISRDNSKNTLYLQMNSLRAEDTAVYFCAASNKLYGRTWYDFNESDYWGQGTQVTVSS
notes: TCE with CD3.23; also called AC3706
B4: PSMA.318 (bispecific antibody, V domains shown)
VH: QVQLVESGGGVVQPGRSLRLSCAASGRTFGIYVMGWFRQAPGKEREFVGAISWSGSNRKVSDSVKGRFTISRDNSKNTLYLQMNSLRAEDTAVRYCAGSNKLYGRTWYDFNESDYWGQGTQVTVSS
notes: TCE with CD3.23; also called AC3720
B5: PSMA.303 (bispecific antibody, V domains shown)
VH: QVQLVESGGGVVQPGRSLRLSCAASGRTFGIYVMGWFRQAPGKEREFVGAMSWSGSNRKVSDSVKGRFTISRDNSKNTLYLQMNSLRAEDTAVYFCAASNKLYGRTWYDFNESDYWGQGTQVTVSS
notes: TCE with CD3.23; also called AC3705
B6: PSMA.305 (bispecific antibody, V domains shown)
VH: QVQLVESGGGVVQPGRSLRLSCAASGRTFGIYVWGWFRQAPGKEREFVGAISWSGSNRKVSDSVKGRFTISRDNSKNTLYLQMNSLRAEDTAVYYCAASNKLYGRTWYDFNESDYWGQGTQVTVSS
notes: TCE with CD3.23; also called AC3707
B7: PSMA.314 (bispecific antibody, V domains shown)
VH: QVQLVESGGGVVQPGRSLRLSCAASGRTFGIYVMGWFRQAPGKEREFVGAISWSGSNRKVSDSVKGRFTISRDNSKNTLYLQMNSLRAEDTAVYYCAASNKDYGRTWYDFNESDYWGQGTQVTVSS
notes: TCE with CD3.23; also called AC3716
B8: PSMA.309 (bispecific antibody, V domains shown)
VH: QVQLVESGGGVVQPGRSLRLSCAASGRTFGIYVWGWFRQAPGKEREFVGAMSWSGSNRKVSDSVKGRFTISRDNSKNTLYLQMNSLRAEDTAVYFCAASNKWYGRTWYDFNESDYWGQGTQVTVSS
notes: TCE with CD3.23; also called AC3711
B9: PSMA.301 (bispecific antibody, V domains shown)
VH: QVQLVESGGGVVQPGRSLRLSCAASGRTFGIYVMGWFRQAPGKEREFVGAISWSGSNRKVSDSVKGRFTISRDNSKNTLYLQMNSLRAEDTAVYFCAASNKLYGRTWYDFNESDYWGQGTQVTVSS
notes: TCE with CD3.23; also called AC3703
B10: PSMA.312 (bispecific antibody, V domains shown)
VH: QVQLVESGGGVVQPGRSLRLSCAASGRTFGIYVMGWFRQAPGKEREFVGAISWSGSNRKVSDSVKGRFTISRDNSKNTLYLQMNSLRAEDTAVYYCGASNKLYGRTWYDFNESDYWGQGTQVTVSS
notes: TCE with CD3.23; also called AC3714
B11: PSMA.307 (bispecific antibody, V domains shown)
VH: QVQLVESGGGVVQPGRSLRLSCAASGRTFGIYVWGWFRQAPGKEREFVGAMSWSGSNRKVSDSVKGRFTISRDNSKNTLYLQMNSLRAEDTAVYYCAASNKLYGRTWYDFNESDYWGQGTQVTVSS
notes: TCE with CD3.23; also called AC3709
B12: PSMA.315 (bispecific antibody, V domains shown)
VH: QVQLVESGGGVVQPGRSLRLSCAASGRTFGIYVMGWFRQAPGKEREFVGAISWSGSNRKVSDSVKGRFTISRDNSKNTLYLQMNSLRAEDTAVYYCAASNKEYGRTWYDFNESDYWGQGTQVTVSS
notes: TCE with CD3.23; also called AC3717
B13: PSMA.316 (bispecific antibody, V domains shown)
VH: QVQLVESGGGVVQPGRSLRLSCAASGRTFGIYVMGWFRQAPGKEREFVGAISWSGSNRKVSDSVKGRFTISRDNSKNTLYLQMNSLRAEDTAVYYCAASNKGYGRTWYDFNESDYWGQGTQVTVSS
notes: TCE with CD3.23; also called AC3718
B14: PSMA.308 (bispecific antibody, V domains shown)
VH: QVQLVESGGGVVQPGRSLRLSCAASGRTFGIYVWGWFRQAPGKEREFVGAMSWSGSNRKVSDSVKGRFTISRDNSKNTLYLQMNSLRAEDTAVYYCAASNKWYGRTWYDFNESDYWGQGTQVTVSS
notes: TCE with CD3.23; also called AC3710
B15: PSMA.302 (bispecific antibody, V domains shown)
VH: QVQLVESGGGVVQPGRSLRLSCAASGRTFGIYVWGWFRQAPGKEREFVGAISWSGSNRKVSDSVKGRFTISRDNSKNTLYLQMNSLRAEDTAVYFCAASNKLYGRTWYDFNESDYWGQGTQVTVSS
notes: TCE with CD3.23; also called AC3704
B16: PSMA.311 (bispecific antibody, V domains shown)
VH: QVQLVESGGGVVQPGRSLRLSCAASGRTFGIYVMGWFRQAPGKEREFVGAISWSGSNRKVSDSVKGRFTISRDNSKNTLYLQMNSLRAEDTAVDYCAASNKLYGRTWYDFNESDYWGQGTQVTVSS
notes: TCE with CD3.23; also called AC3713
B17: PSMA.317 (bispecific antibody, V domains shown)
VH: QVQLVESGGGVVQPGRSLRLSCAASGRTFGIYVMGWFRQAPGKEREFVGAISWSGSNRKVSDSVKGRFTISRDNSKNTLYLQMNSLRAEDTAVAYCAGSNKLYGRTWYDFNESDYWGQGTQVTVSS
notes: TCE with CD3.23; also called AC3719
B18: PSMA.313 (bispecific antibody, V domains shown)
VH: QVQLVESGGGVVQPGRSLRLSCAASGRTFGIYVMGWFRQAPGKEREFVGAISWSGSNRKVSDSVKGRFTISRDNSKNTLYLQMNSLRAEDTAVYYCAASNKRYGRTWYDFNESDYWGQGTQVTVSS
notes: TCE with CD3.23; also called AC3715
B19: CD3.255 (bispecific antibody, V domains shown)
VH: EVQLVESGGGIVQPGGSLRLSCAASGFTFNTYAMNWVRQAPGKGLEWVGRIRSKRNNYATTYADSVKDRFTISRDDSKNTVYLQMNELKTEDTAVYYCVRHENFGNSYVSWFAHWGQGTLVTVSS
VL: ELVVTQEPSLTVSPGGTVTLTCRSSNGAVTSSNYANWVQQKPGQAPRGLIGGTNKRAPGTPARFSGSLLGGKAALTLSGVQPEDEAVYYCALWYPNLWVFGGGTKLTVL
notes: paTCE with PSMA.262; also called AC3686
B20: CD3.262 (bispecific antibody, V domains shown)
VH: EVQLVESGGGIVQPGGSLRLSCAASGFTFNTYAMNWVRQAPGKGLEWVGRIRSKRNNYATTYADSVKDRFTISRDDSKNTLYLQMNELKTEDTAVYYCVRHENFGNSYVSWFAHWGQGTLVTVSS
VL: ELVVTQEPSLTVSPGGTVTLTCRSSNGAVTSSNYANWVQQKPGQAPRGLIGGTNKRAPGTPARFSGSLLGGKAALTLSGVQPEDEAVYYCALWYPNLWVFGGGTKLTVL
notes: paTCE with PSMA.262; also called AC3693
B21: CD3.263 (bispecific antibody, V domains shown)
VH: EVQLVESGGGIVQPGGSLKLSCAASGFTFNTYAMNWVRQAPGKGLEWVGRIRTKRNNYATYYADSVKGRFTISRDDSKNTVYLQMNSLKTEDTAVYYCVRHENFGNSYVSWFAHWGQGTLVTVSS
VL: ELVVTQEPSLTVSPGGTVTLTCRSSNGAVTSSNYANWVQQKPGQAPRGLIGGTNKRAPGTPARFSGSLLGGKAALTLSGVQPEDEAVYYCALWYPNLWVFGGGTKLTVL
notes: paTCE with PSMA.262; also called AC3694
B22: CD3.258 (bispecific antibody, V domains shown)
VH: EVQLVESGGGIVQPGGSLRLSCAASGFTFNTYAMNWVRQAPGKGLEWVGRIRTKYNNYATTYADSVKDRFTISRDDSKNTLYLQMNSLKTEDTAVYYCVRHENFGNSYVSWFAHWGQGTLVTVSS
VL: ELVVTQEPSLTVSPGGTVTLTCRSSNGAVTSSNYANWVQQKPGQAPRGLIGGTNKRAPGTPARFSGSLLGGKAALTLSGVQPEDEAVYYCALWYPNLWVFGGGTKLTVL
notes: paTCE with PSMA.262; also called AC3689
B23: CD3.264 (bispecific antibody, V domains shown)
VH: EVQLVESGGGIVQPGGSLKLSCAASGFTFSTYAMNWVRQAPGKGLEWVGRIRTKRNNYATYYADSVKGRFTISRDDSKNTVYLQMNSLKTEDTAVYYCVRHENFGNSYVSWFAHWGQGTLVTVSS
VL: ELVVTQEPSLTVSPGGTVTLTCRSSNGAVTSSNYANWVQQKPGQAPRGLIGGTNKRAPGTPARFSGSLLGGKAALTLSGVQPEDEAVYYCALWYPNLWVFGGGTKLTVL
notes: paTCE with PSMA.262; also called AC3695
B24: CD3.257 (bispecific antibody, V domains shown)
VH: EVQLVESGGGIVQPGGSLRLSCAASGFTFNTYAMNWVRQAPGKGLEWVGRIRSKTNNYATTYADSVKDRFTISRDDSKNTVYLQMNELKTEDTAVYYCVRHENFGNSYVSWFAHWGQGTLVTVSS
VL: ELVVTQEPSLTVSPGGTVTLTCRSSNGAVTSSNYANWVQQKPGQAPRGLIGGTNKRAPGTPARFSGSLLGGKAALTLSGVQPEDEAVYYCALWYPNLWVFGGGTKLTVL
notes: paTCE with PSMA.262; also called AC3688
B25: CD3.260 (bispecific antibody, V domains shown)
VH: EVQLVESGGGIVQPGGSLRLSCAASGFTFNTYAMNWVRQAPGKGLEWVGRIRSKKNNYATTYADSVKDRFTISRDDSKNTLYLQMNSLKTEDTAVYYCVRHENFGNSYVSWFAHWGQGTLVTVSS
VL: ELVVTQEPSLTVSPGGTVTLTCRSSNGAVTSSNYANWVQQKPGQAPRGLIGGTNKRAPGTPARFSGSLLGGKAALTLSGVQPEDEAVYYCALWYPNLWVFGGGTKLTVL
notes: paTCE with PSMA.262; also called AC3691
B26: CD3.259 (bispecific antibody, V domains shown)
VH: EVQLVESGGGIVQPGGSLRLSCAASGFTFNTYAMNWVRQAPGKGLEWVGRIRSKRNNYATTYADSVKDRFTISRDDSKNTLYLQMNSLKTEDTAVYYCVRHENFGNSYVSWFAHWGQGTLVTVSS
VL: ELVVTQEPSLTVSPGGTVTLTCRSSNGAVTSSNYANWVQQKPGQAPRGLIGGTNKRAPGTPARFSGSLLGGKAALTLSGVQPEDEAVYYCALWYPNLWVFGGGTKLTVL
notes: paTCE with PSMA.262; also called AC3690
B27: CD3.261 (bispecific antibody, V domains shown)
VH: EVQLVESGGGIVQPGGSLRLSCAASGFTFNTYAMNWVRQAPGKGLEWVGRIRSKTNNYATTYADSVKDRFTISRDDSKNTLYLQMNSLKTEDTAVYYCVRHENFGNSYVSWFAHWGQGTLVTVSS
VL: ELVVTQEPSLTVSPGGTVTLTCRSSNGAVTSSNYANWVQQKPGQAPRGLIGGTNKRAPGTPARFSGSLLGGKAALTLSGVQPEDEAVYYCALWYPNLWVFGGGTKLTVL
notes: paTCE with PSMA.262; also called AC3692

Biological target: T1, human PSMA (human, UniProt Q04609 44-750, limits assumed)
T1 construct: also called huPSMA; hPSMA
Experiment: binding screen

T1 sequence (Q04609 44-750 limits assumed): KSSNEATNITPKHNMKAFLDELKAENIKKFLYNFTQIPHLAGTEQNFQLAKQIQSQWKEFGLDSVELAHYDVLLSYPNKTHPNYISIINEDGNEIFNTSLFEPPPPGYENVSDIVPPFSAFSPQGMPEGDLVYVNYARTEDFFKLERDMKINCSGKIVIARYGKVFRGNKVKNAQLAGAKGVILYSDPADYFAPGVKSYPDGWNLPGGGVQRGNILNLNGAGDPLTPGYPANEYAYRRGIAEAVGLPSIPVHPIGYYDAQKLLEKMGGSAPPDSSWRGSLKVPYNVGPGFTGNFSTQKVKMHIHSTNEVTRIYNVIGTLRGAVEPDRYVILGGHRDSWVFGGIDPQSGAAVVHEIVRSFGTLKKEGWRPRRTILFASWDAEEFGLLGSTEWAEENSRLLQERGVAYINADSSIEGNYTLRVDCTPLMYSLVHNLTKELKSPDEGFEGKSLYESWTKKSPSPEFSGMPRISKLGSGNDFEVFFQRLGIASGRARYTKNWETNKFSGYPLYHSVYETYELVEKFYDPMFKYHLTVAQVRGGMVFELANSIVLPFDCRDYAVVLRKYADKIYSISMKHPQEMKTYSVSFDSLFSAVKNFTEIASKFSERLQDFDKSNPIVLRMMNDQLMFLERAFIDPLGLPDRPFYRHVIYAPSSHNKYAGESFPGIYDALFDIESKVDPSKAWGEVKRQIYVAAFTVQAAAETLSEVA

First: B1
Second: B2
The Kd of the first is 2.2-fold lower: 10.4 nM for the first, 23.1 nM for the second. The first binds more tightly here.

Compared with B3, B5 is 1.7-fold higher in Kd: 5.9 nM for the first, 10.3 nM for the second.

Going from B7 to B8, the Kd falls from 69.9 nM to 8.5 nM (8.2-fold). The second binds more tightly here.

B9 and B10 are within 1.5-fold of each other in Kd: 10 nM for the first, 12 nM for the second.

Going from B11 to B12, the Kd rises from 6 nM to 24.2 nM (4-fold).

Going from B13 to B14, the Kd falls from 150 nM to 8.8 nM (17-fold). The second binds more tightly here.

B15 gave a Kd of 2.8 nM.

B4: no binding.
B6: binds.
B16: no binding.
B17: no binding.
B18: no binding.

Biological target: T2, human CD3 epsilon (human, UniProt P07766 23-126, limits assumed)
T2 construct: also called huCD3e
Experiment: Octet, crude lysate
Experimental: Pool 2 consisted of paTCE molecules each containing PSMA.262 and one of 64 CD3.23 mutation combination variants. Stability and affinity of the individually expressed molecules in the form of crude lysate was evaluated by Octet. […] The binding of these anti-CD3 molecules (CD3.227, CD3.228, CD3.229 and CD3.230) to human and cynomolgus CD3 was measured by Octet and the Tm was measured by Differential Scanning Fluorimetry. All variants were paired with PSMA.262 except for CD3.23 which was paired with PSMA.5.

T2 sequence (P07766 23-126 limits assumed): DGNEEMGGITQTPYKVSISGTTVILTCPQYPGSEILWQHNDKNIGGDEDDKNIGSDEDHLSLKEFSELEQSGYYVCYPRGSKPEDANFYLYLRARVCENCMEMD

B19 and B20 are within 1.5-fold of each other in Kd: 22.4 nM for the first, 25.4 nM for the second.

Compared with B21, B22 is 5.3-fold higher in Kd: 7.2 nM for the first, 38 nM for the second. The first binds more tightly here.

First: B23
Second: B24
The Kd of the first is 35-fold lower: 4.5 nM for the first, 159 nM for the second. The first binds more tightly here.

First: B25
Second: B26
The Kd of the first is 1.6-fold higher: 45.6 nM for the first, 29.4 nM for the second. The second binds more tightly here.

Work on B27 yielded a Kd of 97 nM.
